Assay results taken from paper PMC4641155 (Molecular Imaging and Biology, 2015).
Where “and” joins values, the source holds several entries; their conditions need not be identical. Equal entries are not always repeated.

Experiments:
[1] = Human residence time estimates scaled from mouse μSPECT time-activity curves; assay type: in vivo, human (extrapolated from mouse); details: scaled from mouse μSPECT TACs, n = 3 non-purified, n = 6 purified
Text: (§1) Volumes of interest (VOIs) were manually drawn on the μSPECT-CT images using PMOD v3.3 (PMOD Technologies, Switzerland) to delineate the regions with distinct SPECT time-activity pattern: heart, liver, kidney, and urinary bladder, as well as whole-body. The average organ activity per volume was obtained from the co-registered μSPECT images and the non-decay corrected time activity curves (TACs) were extracted for each target organ. In order to relate the scanner units (counts/pixel) to radioactivity concentration (kilobecquerel per cubic centimeter), a scanner calibration factor was estimated by scanning a syringe with a known concentration of Tc-99m. TACs for each organ, as well as the TACs representing the activity in the remainder of the body, were fitted by a single exponential decaying function, which was then integrated to obtain the total number of disintegrations (residence time) within these regions. In order to predict human dosimetry using animal data, interspecies extrapolation is necessary. Thus, the residence times (R) were scaled to human values according to the following formula [21]: R/gorganmouse⋅kgTBweightmouse⋅gorgan/kgTBweighthuman=Rhuman
(§2) The human organ and body weight values from the standard adult male phantom taken into account are implemented in the internal dosimetry software (OLINDA/EXM v1.1) and are assumed to be constant across individuals. The body weight and organ masses for the individual mice were obtained post-mortem. For the bladder model, the fraction leaving the body via the urinary excretion system (f) and the biological half-life of the excretion (t1/2) were estimated by fitting a first-order linear system to the sum of activity in the bladder and the activity that had been excreted (calculated as total injected activity minus total body activity): y=f1−expln2/t1/2t

[2] = Projected human organ absorbed doses and effective dose (OLINDA/EXM); assay type: in vivo, human (extrapolated from mouse); details: OLINDA/EXM v1.1, adult male model, 2-h voiding, from mouse data
Text: as §1, §2
Projected human absorbed doses to various organs and the effective doses (ED) were then computed using the aforementioned dosimetry software (weighting factors from International Commission on Radiological Protection 60), with the human residence times as input, using the standard adult male model and the dynamic voiding bladder model (2-h voiding interval).

[3] = Bladder model fit of urinary excretion; assay type: in vivo, CD1−/− nude female mice; details: first-order fit of bladder plus excreted activity
Text: as §2

COLO205 tumors [4] = experiment: In vivo tumor uptake by μSPECT-CT in COLO205 tumor-bearing mice; set-up: species or system nude mice; details: for mean tumor uptake: μSPECT 4 h p.i., 37 MBq i.v., mean ± SEM, n = 6 tumors
Method: (§3) Irinotecan was administered by intra-peritoneal (i.p.) injection (80 mg/kg) three times in 1 week every other day (n = 3).

COLO205 tumors [5] = experiment: Ex vivo tumor uptake by γ-counting in COLO205 tumor-bearing mice; set-up: species or system nude mice; details: mean ± SEM
Method: as §3

[6] = In vivo plasma metabolite analysis by radio-HPLC; set-up: species or system CD1−/− nude mice; details: mouse plasma 4 and 24 h p.i., 37 MBq purified tracer i.v., acetonitrile deproteination, radio-RP-HPLC with γ-counted fractions; n = 3 per time point
Method: In vivo metabolite analysis
Four and 24 h p.i. (n=3 for each […]
time point) mixed blood was drawn by cardiac puncture, and the mice were euthanized by cervical dislocation. The blood was collected in EDTA-coated tubes and the plasma fraction was obtained by centrifugation (4000 g for 7 min). The plasma (200 µl) was mixed with an equal amount of cold acetonitrile to enable sample deproteination and counted for radioactivity using an automatic γ-counter. After vortexing and centrifuging for 4 min at 4000 g, the supernatant was separated from the pellet and both fractions were γ-counted to calculate the amount of radioactivity extracted in acetonitrile. To study radiometabolite formation, 100 µl of the supernatant were analyzed by RP-HPLC using the method described before. Eluate fractions of 0.5 min were collected and counted for radioactivity in the γ-counter.
Adult normal CD1-/- nude mice were used to examine the metabolic stability of […]
According to the radio-HPLC analysis of the plasma samples, the majority of the injected radiotracer remains unchanged after 4 and 24 h p.i. (Figs. 1b and c, respectively).
One minor polar impurity was detected eluting at 3 min. As it was also visible in the reference […]
Radiometabolites eluting with a longer retention time (18.5 – 30 min) could also be detected.

For `CC(C)[C@@H]1NC(=O)[C@H](Cc2ccccc2)NC(=O)[C@@H]2NC(=O)[C@H](Cc3ccccc3)NC(=O)[C@@H]3CCCN3C(=O)CNC(=O)[C@H](Cc3ccccc3)NC(=O)[C@@H]3CNCCCC[C@@H](C(=O)O)NC(=O)[C@@H]4NC(=O)[C@H](CC(N)=O)NC(=O)CNC(=O)[C@H]([C@@H](O)C(=O)O)NC(=O)[C@H](CSC[C@@H](NC(=O)[C@H](CCC(N)=O)NC(=O)[C@H](CCCCNC(=O)c5ccc(NN)nc5)NC(=O)[C@@H](N)CS[C@H]4C)C(=O)N[C@@H](CS[C@H]2C)C(=O)N3)NC1=O` [purified [^99mTc]duramycin] [metal not drawn], the “Mean human residence time, heart contents” value [1] was 0.027 h, the “Mean human residence time, kidneys” value [1] was 0.0549 h and the “Mean human residence time, liver” value [1] was 0.075 h. For the same compound, the “Mean human residence time, remaining body” value [1] was 2.54 h, the “Mean human residence time, urinary bladder contents” value [1] was 6.43 × 10 ^−1 h and the “Mean human absorbed dose, total body” value [2] was 1.62 × 10^−3 mGy/MBq. The “Mean human organ absorbed dose, LLI wall” value [2] was 2.97 × 10^−3 mGy/MBq, the “Mean human organ absorbed dose, ULI wall” value [2] was 2.03 × 10^−3 mGy/MBq and the “Mean human organ absorbed dose, adrenals” value [2] was 1.74 × 10^−3 mGy/MBq. For the same compound, the “Mean human organ absorbed dose, brain” value [2] was 1.14 × 10^−3 mGy/MBq, the “Mean human organ absorbed dose, breasts” value [2] was 9.59 × 10^−4 mGy/MBq and the “Mean human organ absorbed dose, gallbladder wall” value [2] was 1.84 × 10^−3 mGy/MBq. For the same compound, the “Mean human organ absorbed dose, heart wall” value [2] was 1.91 × 10^−3 mGy/MBq, the “Mean human organ absorbed dose, kidneys” value [2] was 3.63 × 10^−3 mGy/MBq and the “Mean human organ absorbed dose, liver” value [2] was 1.64 × 10^−3 mGy/MBq. For the same compound, the “Mean human organ absorbed dose, lungs” value [2] was 1.36 × 10^−3 mGy/MBq, the “Mean human organ absorbed dose, muscle” value [2] was 1.55 × 10^−3 mGy/MBq and the “Mean human organ absorbed dose, osteogenic cells” value [2] was 3.92 × 10^−3 mGy/MBq. For the same compound, the “Mean human organ absorbed dose, ovaries” value [2] was 2.96 × 10^−3 mGy/MBq, the “Mean human organ absorbed dose, pancreas” value [2] was 1.82 × 10^−3 mGy/MBq and the “Mean human organ absorbed dose, red marrow” value [2] was 1.48 × 10^−3 mGy/MBq. The “Mean human organ absorbed dose, skin” value [2] was 9.56 × 10^−4 mGy/MBq, the “Mean human organ absorbed dose, small intestine” value [2] was 2.22 × 10^−3 mGy/MBq and the “Mean human organ absorbed dose, spleen” value [2] was 1.59 × 10^−3 mGy/MBq. For the same compound, the “Mean human organ absorbed dose, stomach wall” value [2] was 1.59 × 10^−3 mGy/MBq, the “Mean human organ absorbed dose, testes” value [2] was 2.07 × 10^−3 mGy/MBq and the “Mean human organ absorbed dose, thymus” value [2] was 1.39 × 10^−3 mGy/MBq. For the same compound, the “Mean human organ absorbed dose, thyroid” value [2] was 1.38 × 10^−3 mGy/MBq, the “Mean human organ absorbed dose, urinary bladder wall” value [2] was 2.70 × 10^−2 ± 3.05 × 10^−3 mGy/MBq and 2.70 × 10 ^−2 mGy/MBq and the “Mean human organ absorbed dose, uterus” value [2] was 4.57 × 10^−3 ± 3.42 × 10^−4 mGy/MBq and 4.57 × 10 ^−3 mGy/MBq. The “f, mean fraction leaving the body via the urinary excretion system” value [3] was 0.697, the “t 1/2, mean biological half-life of the excretion” value [3] was 2.151 h and the “tumor-to-blood uptake ratio, irinotecan-treated over vehicle-treated mice” value (COLO205 tumors [4]; 4 h p.i.) was 6 fold. For the same compound, the “tumor-to-muscle uptake ratio, irinotecan-treated over vehicle-treated mice” value (COLO205 tumors [4]; 4 h p.i.) was 2 fold, the mean tumor uptake (COLO205 tumors [4]; irinotecan-treated group, 24 h after last dose) was 148.50 ± 25.42 %I.D./g/kg and the mean tumor uptake (COLO205 tumors [4]; vehicle-treated group) was 40.58 ± 2.81 %I.D./g/kg. For the same compound, the “tumor uptake by γ-counting” value (COLO205 tumors [5]; control (vehicle) tumors) was 0.74 ± 0.04 %I.D./g, the “tumor uptake by γ-counting” value (COLO205 tumors [5]; irinotecan-treated tumors) was 1.65 ± 0.13 %I.D./g and the “in vivo plasma (metabolic) stability” value [6] was “unchanged”.
